Test results reported in the Human Domainome abundance scans (Beltran et al. 2025).
± gives the uncertainty stated by the source.

B1: Far upstream element-binding protein 3, residues 75 to 150; numbered along this chain, Q96I24 (parent)
chain: RTVITEEFKVPDKMVGFIIGRGGEQISRIQAESGCKIQIASESSGIPERPCVLTGTPESIEQAKRLLGQIVDRCRN

Variants of: B1
Assay: abundance fitness (aPCA) (normalised: wild type 0, dead -1); higher = more abundant; growth selection in yeast, the domain comes from the species named
Settings: Homo sapiens

Variant | abundance fitness
G16C | -0.074 ± 0.041
I29R | -0.856 ± 0.033
T56N | -0.105 ± 0.055
I70R | -0.024 ± 0.028
P57N | -0.1 ± 0.082
P11H | -0.217 ± 0.066
L53Q | -1.13 ± 0.12
E48R | -0.153 ± 0.029
T54C | -0.187 ± 0.066
G22K | -0.007 ± 0.045
R28Q | -0.02 ± 0.04
E24G | -0.045 ± 0.028
V3P | -0.117 ± 0.043
I19E | -0.081 ± 0.051
S43E | -0.049 ± 0.039
S44R | -0.046 ± 0.028
P50K | -0.029 ± 0.036
I60A | -0.542 ± 0.037
R65I | 0.057 ± 0.067
R28H | -0.108 ± 0.064
M14E | -0.216 ± 0.038
T56G | -0.232 ± 0.025
E24R | 0.113 ± 0.027
D12Y | -0.116 ± 0.073

Variant | abundance fitness
V71G | -0.105 ± 0.026
E61A | -0.037 ± 0.032
V52L | -0.023 ± 0.033
E7Y | -0.037 ± 0.055
I4Q | -0.087 ± 0.037
R75T | 0.052 ± 0.044
R75M | 0.009 ± 0.051
R75V | 0.008 ± 0.035
E32C | -0.128 ± 0.042
G20N | -0.17 ± 0.09
Q38W | -0.107 ± 0.032
R21N | 0.004 ± 0.063
G16P | -0.029 ± 0.041
E32Y | -0.049 ± 0.059
V10Y | -0.291 ± 0.059
Q69G | -0.012 ± 0.03
I60S | -0.836 ± 0.055
S41F | -0.176 ± 0.059
C74Y | -0.126 ± 0.059
I70H | -0.096 ± 0.055
L67P | -0.649 ± 0.091
P50D | -0.079 ± 0.045
L53S | -0.838 ± 0.065
S27I | -0.187 ± 0.074

Variant | abundance fitness
E7S | -0.019 ± 0.032
R49S | -0.141 ± 0.036
V10W | -0.295 ± 0.032
R65N | 0.013 ± 0.059
G23F | -0.117 ± 0.056
V52H | -0.064 ± 0.061
Q30I | -0.131 ± 0.059
G34D | -0.073 ± 0.047
I26M | -0.052 ± 0.042
V52I | -0.034 ± 0.057
Q62V | -0.008 ± 0.033
C51W | -0.147 ± 0.034
I46R | -0.046 ± 0.027
S41N | 0.022 ± 0.057
I19K | -0.057 ± 0.053
K36P | -0.811 ± 0.063
I46A | 0.03 ± 0.033
E58K | 0.045 ± 0.073
K36S | -0.034 ± 0.035
V52E | -0.073 ± 0.037
Q30D | -0.582 ± 0.059
E6K | -0.018 ± 0.043
R73T | 0.019 ± 0.042
G16Y | -0.135 ± 0.058

Variant | abundance fitness
Q38P | -0.829 ± 0.074
I4W | -0.125 ± 0.033
E42N | -0.043 ± 0.065
R21W | -0.187 ± 0.036
I46V | -0.007 ± 0.029
E24N | 0.052 ± 0.05
Q62G | -0.055 ± 0.035
I60R | -0.21 ± 0.028
S44P | -0.058 ± 0.043
E58Q | -0.066 ± 0.044
P57F | -0.103 ± 0.081
A40D | 0.002 ± 0.043
C35R | -0.732 ± 0.035
P57G | -0.113 ± 0.032
R28F | -0.218 ± 0.067
I26Y | -0.288 ± 0.062
R75P | -0.025 ± 0.038
D12F | -0.186 ± 0.064
K36Q | -0.065 ± 0.045
S33H | -0.716 ± 0.087
G16S | -0.032 ± 0.035
R1A | -0.077 ± 0.046
E42G | -0.013 ± 0.028
Q38Y | -0.172 ± 0.077

Variant | abundance fitness
V71H | -0.21 ± 0.054
I26V | -0.024 ± 0.031
S33E | -0.641 ± 0.048
I46S | -0.018 ± 0.035
A63L | -0.746 ± 0.037
I29C | -0.191 ± 0.038
S43W | -0.155 ± 0.038
D72H | -0.023 ± 0.058
D12K | -0.066 ± 0.049
R75N | -0.126 ± 0.081
I60Q | -0.806 ± 0.062
C35E | -0.539 ± 0.044
V15Y | -0.141 ± 0.065
P11C | -0.239 ± 0.048
V71F | -0.099 ± 0.058
I4Y | -0.006 ± 0.066
K64V | -0.35 ± 0.031
I70M | -0.013 ± 0.04
C35I | -0.397 ± 0.082
S59F | -1.1 ± 0.26
N76E | -0.025 ± 0.067
E48V | -0.127 ± 0.029
K36R | -0.027 ± 0.029
S41H | -0.099 ± 0.089

Variant | abundance fitness
V3Y | -0.053 ± 0.069
R21D | -0.071 ± 0.051
F17H | -0.026 ± 0.061
K9Q | -0.007 ± 0.038
Q30R | -0.05 ± 0.026
S41T | -0.02 ± 0.038
R73P | -0.001 ± 0.045
T2D | -0.061 ± 0.053
T54M | -0.077 ± 0.05
I19P | -0.25 ± 0.043
M14C | -0.063 ± 0.048
R65G | -0.053 ± 0.026
G68R | -0.036 ± 0.029
G55T | -1.09 ± 0.078
R28P | -0.617 ± 0.052
R49L | -0.19 ± 0.032
Q62N | -0.041 ± 0.038
E48S | -0.043 ± 0.033
K36Y | -0.14 ± 0.059
S59H | -0.221 ± 0.062
V10A | -0.287 ± 0.034
L67I | -0.131 ± 0.075
D12N | -0.004 ± 0.058
E6Q | -0.068 ± 0.041

Variant | abundance fitness
I18M | -0.079 ± 0.039
L53R | -1.25 ± 0.066
G34Y | -0.361 ± 0.074
R1V | -0.043 ± 0.042
G20M | -0.312 ± 0.046
I46L | 0.018 ± 0.031
L66N | -0.221 ± 0.062
A40I | -0.036 ± 0.07
C51V | -0.009 ± 0.033
I29D | -0.432 ± 0.052
E48P | -0.242 ± 0.042
Q69C | -0.076 ± 0.046
Q62Y | -0.096 ± 0.044
I39H | -0.44 ± 0.066
C51N | -0.634 ± 0.091
G20W | -0.483 ± 0.037
E61F | -0.035 ± 0.056
Q69W | -0.283 ± 0.038
T5W | -0.192 ± 0.037
E61H | -0.031 ± 0.06
I39K | -0.614 ± 0.046
A31M | -0.07 ± 0.039
P11L | -0.236 ± 0.036
